{
  "source": "paper PMC3506661",
  "biological_target": "BAK (UniProt Q16611)",
  "test": "biotinylated BH3 peptide pull-down from lysate",
  "details": "reference: wild type, okadaic acid then UV; sites S117",
  "data": [
    {"substance": "BAK (from UniProt Q16611) S117A, okadaic acid then UV", "values": [
      {"measurement": "binding against the reference", "value": "gained"}
    ]}
  ]
}
